# From patent publication US20180155451A1 (published 2018)
# T1: FcγRIIb extracellular domain with C-terminal His tag (human, UniProt P31994 43-217)
# T1 construct: extracellular domain; also called FcgRIIb; 2b; not shown: His tag at the C terminus
# T1 sequence (looked up): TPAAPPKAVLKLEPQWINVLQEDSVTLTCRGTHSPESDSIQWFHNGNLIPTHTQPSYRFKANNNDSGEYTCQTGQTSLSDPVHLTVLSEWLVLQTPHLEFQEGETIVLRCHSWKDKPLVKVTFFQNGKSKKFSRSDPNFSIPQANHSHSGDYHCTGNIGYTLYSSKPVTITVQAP
# Assays:
# [1] = molecular target: T1, FcγRIIb extracellular domain with …; test: SPR (Biacore), antibody captured, FcγR as analyte; He Ab binding / GpH7-A5/GpH7-B3/GpL16-k0 binding x 100
# Protocol: (§1) The heterodimerized antibodies He Abs in which one of the H chains was introduced with an alteration were assayed for their binding activities to each activating FcγR and inhibitory FcγR according to the method described in Example 4. […] The activating FcγRs in FIGS. 26, 27, 28, and 29 are FcγRIa, FcγRIIa (R), FcγRIIa (H), and FcγRIIIa, respectively.
# (§2) Analysis of interaction between objective antibody and the FcγR was carried out using Biacore T100 (GE Healthcare). HBS-EP+ (GE Healthcare) was used as the running buffer, and the measurement temperature was set to 25° C. Chips produced by immobilizing the antigen peptide by the amine coupling method to a Series S Sencor Chip CM5 (GE Healthcare), or alternatively, chips produced by allowing preliminarily biotinylated antigen peptides to interact with and immobilize onto a Series S Sensor Chip SA (certified) (GE Healthcare) were used. Antibodies of interest were captured onto an antigen peptide-immobilized chip, and allowed to interact to each FcγR diluted with running buffer. To regenerate and repeatedly use the chip, the antibodies captured on the chip were washed off by reacting 10 mM glycine-HCl, pH 1.5.
# [2] = molecular target: T2, FcγRIIIa extracellular domain with C-terminal His tag (human, UniProt P08637 17-208); test: as above
# T2 construct: extracellular domain; also called FcgRIIIa; 3a; not shown: His tag at the C terminus
# T2 sequence (P08637 17-208): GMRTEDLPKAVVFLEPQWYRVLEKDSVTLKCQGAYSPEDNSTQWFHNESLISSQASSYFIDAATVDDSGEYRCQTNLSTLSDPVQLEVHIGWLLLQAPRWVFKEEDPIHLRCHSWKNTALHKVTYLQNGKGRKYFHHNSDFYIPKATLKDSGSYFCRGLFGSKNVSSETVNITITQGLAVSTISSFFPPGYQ
# Protocol: as §1, §2
# [3] = molecular target: T2, FcγRIIIa extracellular domain with …; test: SPR (Biacore); ratio of He/Con_3a (FcγRIIIa) to He/Con_2b (FcγRIIb)
# Protocol: as §1, §2
He/Con_2b (IIb binding) [1],He/Con_3a (IIIa binding) [2],He_3a/2b (IIIa/IIb) [3] [ratio],Binder
"73.4 relative, control = 100","160 relative, control = 100",2.18,"GpH7-A5/GpH7-B3 variant S298_02A/GpL16-k0 (antibody, human IgG1, kappa, position is EU numbering; also called He Ab) heavy 1: not shown heavy 2: not shown light: DIVMTQSPLSLPVTPGEPASISCQASESLVHSNRNTYLHWYLQKPGQSPQLLIYKVSNRFSGVPDRFSGSGSGTDFTLKISRVEAEDVGVYYCSQNTHVPPTFGQGTKVEIERTVAAPSVFIFPPSDEQLKSGTASVVCLLNNFYPREAKVQWKVDNALQSGNSQESVTEQDSKDSTYSLSSTLTLSKADYEKHKVYACEVTHQGLSSPVTKSFNRGEC"
"12.5 relative, control = 100","31.7 relative, control = 100",2.53,"GpH7-A5/GpH7-B3 variant A327_11K/GpL16-k0 (antibody, human IgG1, kappa, position is EU numbering; also called He Ab) heavy 1: not shown heavy 2: not shown light: DIVMTQSPLSLPVTPGEPASISCQASESLVHSNRNTYLHWYLQKPGQSPQLLIYKVSNRFSGVPDRFSGSGSGTDFTLKISRVEAEDVGVYYCSQNTHVPPTFGQGTKVEIERTVAAPSVFIFPPSDEQLKSGTASVVCLLNNFYPREAKVQWKVDNALQSGNSQESVTEQDSKDSTYSLSSTLTLSKADYEKHKVYACEVTHQGLSSPVTKSFNRGEC"
"81.4 relative, control = 100","98.2 relative, control = 100",1.21,"GpH7-A5/GpH7-B3 variant E333_01G/GpL16-k0 (antibody, human IgG1, kappa, position is EU numbering; also called He Ab) heavy 1: not shown heavy 2: not shown light: DIVMTQSPLSLPVTPGEPASISCQASESLVHSNRNTYLHWYLQKPGQSPQLLIYKVSNRFSGVPDRFSGSGSGTDFTLKISRVEAEDVGVYYCSQNTHVPPTFGQGTKVEIERTVAAPSVFIFPPSDEQLKSGTASVVCLLNNFYPREAKVQWKVDNALQSGNSQESVTEQDSKDSTYSLSSTLTLSKADYEKHKVYACEVTHQGLSSPVTKSFNRGEC"
"70.5 relative, control = 100","124 relative, control = 100",1.77,"GpH7-A5/GpH7-B3 variant A330_08L/GpL16-k0 (antibody, human IgG1, kappa, position is EU numbering; also called He Ab) heavy 1: not shown heavy 2: not shown light: DIVMTQSPLSLPVTPGEPASISCQASESLVHSNRNTYLHWYLQKPGQSPQLLIYKVSNRFSGVPDRFSGSGSGTDFTLKISRVEAEDVGVYYCSQNTHVPPTFGQGTKVEIERTVAAPSVFIFPPSDEQLKSGTASVVCLLNNFYPREAKVQWKVDNALQSGNSQESVTEQDSKDSTYSLSSTLTLSKADYEKHKVYACEVTHQGLSSPVTKSFNRGEC"
"52.4 relative, control = 100","101 relative, control = 100",1.93,"GpH7-A5/GpH7-B3 variant A330_03V/GpL16-k0 (antibody, human IgG1, kappa, position is EU numbering; also called He Ab) heavy 1: not shown heavy 2: not shown light: DIVMTQSPLSLPVTPGEPASISCQASESLVHSNRNTYLHWYLQKPGQSPQLLIYKVSNRFSGVPDRFSGSGSGTDFTLKISRVEAEDVGVYYCSQNTHVPPTFGQGTKVEIERTVAAPSVFIFPPSDEQLKSGTASVVCLLNNFYPREAKVQWKVDNALQSGNSQESVTEQDSKDSTYSLSSTLTLSKADYEKHKVYACEVTHQGLSSPVTKSFNRGEC"
"95 relative, control = 100","125 relative, control = 100",1.32,"GpH7-A5/GpH7-B3 variant A330_15Y/GpL16-k0 (antibody, human IgG1, kappa, position is EU numbering; also called He Ab) heavy 1: not shown heavy 2: not shown light: DIVMTQSPLSLPVTPGEPASISCQASESLVHSNRNTYLHWYLQKPGQSPQLLIYKVSNRFSGVPDRFSGSGSGTDFTLKISRVEAEDVGVYYCSQNTHVPPTFGQGTKVEIERTVAAPSVFIFPPSDEQLKSGTASVVCLLNNFYPREAKVQWKVDNALQSGNSQESVTEQDSKDSTYSLSSTLTLSKADYEKHKVYACEVTHQGLSSPVTKSFNRGEC"
"76.1 relative, control = 100","104 relative, control = 100",1.37,"GpH7-A5/GpH7-B3 variant A330_20W/GpL16-k0 (antibody, human IgG1, kappa, position is EU numbering; also called He Ab) heavy 1: not shown heavy 2: not shown light: DIVMTQSPLSLPVTPGEPASISCQASESLVHSNRNTYLHWYLQKPGQSPQLLIYKVSNRFSGVPDRFSGSGSGTDFTLKISRVEAEDVGVYYCSQNTHVPPTFGQGTKVEIERTVAAPSVFIFPPSDEQLKSGTASVVCLLNNFYPREAKVQWKVDNALQSGNSQESVTEQDSKDSTYSLSSTLTLSKADYEKHKVYACEVTHQGLSSPVTKSFNRGEC"
"81.8 relative, control = 100","103 relative, control = 100",1.26,"GpH7-A5/GpH7-B3 variant E333_13S/GpL16-k0 (antibody, human IgG1, kappa, position is EU numbering; also called He Ab) heavy 1: not shown heavy 2: not shown light: DIVMTQSPLSLPVTPGEPASISCQASESLVHSNRNTYLHWYLQKPGQSPQLLIYKVSNRFSGVPDRFSGSGSGTDFTLKISRVEAEDVGVYYCSQNTHVPPTFGQGTKVEIERTVAAPSVFIFPPSDEQLKSGTASVVCLLNNFYPREAKVQWKVDNALQSGNSQESVTEQDSKDSTYSLSSTLTLSKADYEKHKVYACEVTHQGLSSPVTKSFNRGEC"
"80.5 relative, control = 100","142 relative, control = 100",1.76,"GpH7-A5/GpH7-B3 variant A330_06M/GpL16-k0 (antibody, human IgG1, kappa, position is EU numbering; also called He Ab) heavy 1: not shown heavy 2: not shown light: DIVMTQSPLSLPVTPGEPASISCQASESLVHSNRNTYLHWYLQKPGQSPQLLIYKVSNRFSGVPDRFSGSGSGTDFTLKISRVEAEDVGVYYCSQNTHVPPTFGQGTKVEIERTVAAPSVFIFPPSDEQLKSGTASVVCLLNNFYPREAKVQWKVDNALQSGNSQESVTEQDSKDSTYSLSSTLTLSKADYEKHKVYACEVTHQGLSSPVTKSFNRGEC"
"67.1 relative, control = 100","103 relative, control = 100",1.53,"GpH7-A5/GpH7-B3 variant A330_07I/GpL16-k0 (antibody, human IgG1, kappa, position is EU numbering; also called He Ab) heavy 1: not shown heavy 2: not shown light: DIVMTQSPLSLPVTPGEPASISCQASESLVHSNRNTYLHWYLQKPGQSPQLLIYKVSNRFSGVPDRFSGSGSGTDFTLKISRVEAEDVGVYYCSQNTHVPPTFGQGTKVEIERTVAAPSVFIFPPSDEQLKSGTASVVCLLNNFYPREAKVQWKVDNALQSGNSQESVTEQDSKDSTYSLSSTLTLSKADYEKHKVYACEVTHQGLSSPVTKSFNRGEC"
"92.8 relative, control = 100","147 relative, control = 100",1.59,"GpH7-A5/GpH7-B3 variant A330_04F/GpL16-k0 (antibody, human IgG1, kappa, position is EU numbering; also called He Ab) heavy 1: not shown heavy 2: not shown light: DIVMTQSPLSLPVTPGEPASISCQASESLVHSNRNTYLHWYLQKPGQSPQLLIYKVSNRFSGVPDRFSGSGSGTDFTLKISRVEAEDVGVYYCSQNTHVPPTFGQGTKVEIERTVAAPSVFIFPPSDEQLKSGTASVVCLLNNFYPREAKVQWKVDNALQSGNSQESVTEQDSKDSTYSLSSTLTLSKADYEKHKVYACEVTHQGLSSPVTKSFNRGEC"
"70.1 relative, control = 100","84.6 relative, control = 100",1.21,"GpH7-A5/GpH7-B3 variant A330_10E/GpL16-k0 (antibody, human IgG1, kappa, position is EU numbering; also called He Ab) heavy 1: not shown heavy 2: not shown light: DIVMTQSPLSLPVTPGEPASISCQASESLVHSNRNTYLHWYLQKPGQSPQLLIYKVSNRFSGVPDRFSGSGSGTDFTLKISRVEAEDVGVYYCSQNTHVPPTFGQGTKVEIERTVAAPSVFIFPPSDEQLKSGTASVVCLLNNFYPREAKVQWKVDNALQSGNSQESVTEQDSKDSTYSLSSTLTLSKADYEKHKVYACEVTHQGLSSPVTKSFNRGEC"
"83.8 relative, control = 100","105 relative, control = 100",1.26,"GpH7-A5/GpH7-B3 variant E333_02A/GpL16-k0 (antibody, human IgG1, kappa, position is EU numbering; also called He Ab) heavy 1: not shown heavy 2: not shown light: DIVMTQSPLSLPVTPGEPASISCQASESLVHSNRNTYLHWYLQKPGQSPQLLIYKVSNRFSGVPDRFSGSGSGTDFTLKISRVEAEDVGVYYCSQNTHVPPTFGQGTKVEIERTVAAPSVFIFPPSDEQLKSGTASVVCLLNNFYPREAKVQWKVDNALQSGNSQESVTEQDSKDSTYSLSSTLTLSKADYEKHKVYACEVTHQGLSSPVTKSFNRGEC"
"83.3 relative, control = 100","103 relative, control = 100",1.24,"GpH7-A5/GpH7-B3 variant E333_16H/GpL16-k0 (antibody, human IgG1, kappa, position is EU numbering; also called He Ab) heavy 1: not shown heavy 2: not shown light: DIVMTQSPLSLPVTPGEPASISCQASESLVHSNRNTYLHWYLQKPGQSPQLLIYKVSNRFSGVPDRFSGSGSGTDFTLKISRVEAEDVGVYYCSQNTHVPPTFGQGTKVEIERTVAAPSVFIFPPSDEQLKSGTASVVCLLNNFYPREAKVQWKVDNALQSGNSQESVTEQDSKDSTYSLSSTLTLSKADYEKHKVYACEVTHQGLSSPVTKSFNRGEC"
